Results on seven molecules are retold here after publication PMC11243334, “Synthesis and Evaluation of the First ^68Ga-Labeled C-Terminal Hydroxamate-Derived Gastrin-Releasing Peptide Receptor-Targeted Tracers for Cancer Imaging with Positron Emission Tomography” (Molecules, 2024).

The target of data set [1] is T1, GRPR (Homo sapiens, UniProt P30550).
T1 construct: host or cells: PC-3 human prostate adenocarcinoma cells
Briefly: Fluorometric intracellular calcium release assay in PC-3 cells. Format: cell-based. The following applies: for Ca2+ mobilization, relative fluorescence units (RFUs = max − min): 50 nM ligand, FLIPR Calcium 6, signal acquired 2 min, n = 3. The method, then:
The antagonist/agonist characteristics of Ga-LW02075 and Ga-LW02050 were determined following previously published procedures. A 96-well clear-bottomed black plate was seeded with 5 × 10^4 PC-3 cells/well in 100 μL growth media 24 h prior to the assay. A calcium-sensitive dye (FLIPR Calcium 6 assay kit from Molecular Devices, San Jose, CA, USA) dissolved in the loading buffer (100 μL/well) was added into the plate followed by 1 h incubation at 37 °C. Then, the plate was transferred into a FlexStation 3 microplate reader (Molecular Devices, San Jose, CA, USA) to record the fluorescent signals. Ga-complexed SB3 derivatives (50 nM), [D-Phe^6,Leu-NHEt^13,des-Met^14]Bombesin(6-14) (50 nM, antagonist control), bombesin (50 nM, agonist control), adenosine triphosphate (ATP, 50 nM, positive control), or DPBS (blank control) were added. The fluorescent signals were acquired for 2 min (λEx = 485 nm; λEm = 525 nm; n = 3). The relative fluorescent units (RFUs = max − min) were calculated to determine the agonistic/antagonistic characteristics of the tested ligands.

The nature of data set [2]: Ex vivo biodistribution in PC-3 tumor-bearing mice. The following applies: male, mouse, iv, total radioactivity, 1 h post injection, mean ± SD, n = 4; for tissue uptake at 1 h: NOD.Cg-Rag1^tm1Mom Il2rg^tm1Wjl/SzJ (NRG); for tissue to tissue ratio at 1 h: NOD.Cg-Rag1tm1Mom Il2rgtm1Wjl/SzJ (NRG). The method, then:
Biodistribution studies were conducted for ^68Ga-labeled SB3, LW02075 and LW02050 in PC-3 tumor-bearing mice (n = 4).
(§1) Imaging and biodistribution studies were performed on male NOD.Cg-Rag1^tm1Mom Il2rg^tm1Wjl/SzJ (NRG) mice following previously published procedures. The experiments were conducted following the guidelines established by the Canadian Council on Animal Care and approved by Animal Ethics Committee of the University of British Columbia. The mice were sedated (2.5% isoflurane in oxygen) and injected with 5 × 10^6 PC-3 cells (100 µL; 1:1 PBS/Matrigel) subcutaneously behind the left shoulder. The tumor-bearing mice were used for PET/CT imaging and biodistribution studies when the tumor grew to 5–8 mm in diameter.
For biodistribution studies, the mice were injected with the radiotracer (~2–4 MBq), as described above. Blocking of [^68Ga]Ga-LW02075 and [^68Ga]Ga-LW02050 was conducted by co-injection with 100 μg nonradioactive Ga-LW02075 and Ga-LW02050, respectively, through a lateral caudal tail vein under anaesthesia. At 1 h post injection, the mice were sedated and euthanized by CO2 inhalation. Blood was collected via cardiac puncture, and organs/tissues of interest were collected, weighed, and counted on a Perkin Elmer (Waltham, MA, USA) Wizard2 2480 automatic gamma counter.

A further data set can be described thus: physchem. The following applies: n-octanol/DPBS, pH 7.4. The method, then:
LogD7.4 values of [^68Ga]Ga-LW02075, [^68Ga]Ga-LW02050, and [^68Ga]Ga-SB3 were measured via the shake flask method. An aliquot of the ^68Ga-labeled tracer (~1.85 MBq) was added to a 15 mL falcon tube containing 3 mL of n-octanol and 3 mL of DPBS (pH 7.4) followed by 1 min of vortex (n = 3). After that, the mixture was centrifuged at 5000 rpm for 10 min, and samples of the n-octanol (1 mL) and buffer (1 mL) layers were collected and counted on a Perkin Elmer (Waltham, MA, USA) Wizard2 2480 automatic gamma counter. The LogD7.4 values of [^68Ga]Ga-LW02075, [^68Ga]Ga-LW02050, and [^68Ga]Ga-SB3 were calculated following the equation: LogD7.4 = log10[(counts in the n-octanol phase)/(counts in the buffer phase)].

In the next data set the test system is PC-3 tumor xenografts. Briefly: PET/CT imaging in mice bearing PC-3 tumor xenografts. It is filed as in vivo. The following applies: 1 h post injection, mice. The method, then:
as §1
PET/CT imaging experiments were performed on a Siemens (Knoxville, TN, USA) Inveon micro PET/CT scanner. Each tumor-bearing mouse was injected with ~3–6 MBq of ^68Ga-labeled tracer through a lateral caudal tail vein under anaesthesia. At around 50 min post injection, a 10 min CT scan was obtained first for localization and attenuation correction after segmentation for reconstructing the PET image, followed by a 10 min static PET scan.

Data set [3] addresses GRPR. The following applies: ref 14 (Devin et al.); cited from earlier work. An excerpt:
Most of the reported GRPR-targeted agonist and antagonist sequences contain a C-terminal amide. […] To the best of our knowledge, no GRPR-targeted radioligands containing a C-terminal hydroxamate have ever been reported. Therefore, the goal of this study was to evaluate the potential of C-terminal hydroxamate- ...

Data set [4] has as its target T1, GRPR. Briefly: In vitro competition binding assay, displacement of [125I-Tyr4]Bombesin from PC-3 cells. The following applies: GRPR-expressing PC-3 cells, 0.01 nM [125I-Tyr4]Bombesin, 1 h at 37 °C, ligand 10 μM to 1 pM, n = 3. The method, then:
The Ki values of Ga-LW02075, Ga-LW02050, and Ga-SB3 were measured using GRPR-expressing PC-3 prostate cancer cells via a cell-based competition binding assay. Ga-SB3, Ga-LW02075, and Ga-LW02050 inhibited the binding of [^125I-Tyr^4]Bombesin towards PC-3 cells in a dose-dependent manner (Figure 2).
Inhibition constants (Ki) of Ga-SB3, Ga-LW02075, and Ga-LW02050 toward GRPR were measured by in vitro competition binding assay following previously published procedures. The assays were conducted in triplicate with varied concentrations (10 μM to 1 pM) of Ga-SB3, Ga-LW02075, and Ga-LW02050. Briefly, 2 × 10^5 cells/well of PC-3 cells were seeded in 24-well poly-D-lysine plates 24 h prior to the assay. The growth medium was replaced with 400 μL of reaction medium (RPMI 1640 containing 2 mg/mL bovine serum albumin (BSA) and 20 mM HEPES), followed by 1 h incubation at 37 °C. The tested ligands in 50 μL reaction medium and 0.01 nM [^125I-Tyr^4]Bombesin in 50 μL reaction medium were added into the wells, and then incubated at 37 °C with moderate agitation for 1 h. […] Data analysis was performed using nonlinear regression with GraphPad (San Diego, CA, USA) Prism 10 software (Version 10.1.1).

Like-named read-outs stand apart in the source and are kept apart here.

T1 sequence (P30550 whole entry): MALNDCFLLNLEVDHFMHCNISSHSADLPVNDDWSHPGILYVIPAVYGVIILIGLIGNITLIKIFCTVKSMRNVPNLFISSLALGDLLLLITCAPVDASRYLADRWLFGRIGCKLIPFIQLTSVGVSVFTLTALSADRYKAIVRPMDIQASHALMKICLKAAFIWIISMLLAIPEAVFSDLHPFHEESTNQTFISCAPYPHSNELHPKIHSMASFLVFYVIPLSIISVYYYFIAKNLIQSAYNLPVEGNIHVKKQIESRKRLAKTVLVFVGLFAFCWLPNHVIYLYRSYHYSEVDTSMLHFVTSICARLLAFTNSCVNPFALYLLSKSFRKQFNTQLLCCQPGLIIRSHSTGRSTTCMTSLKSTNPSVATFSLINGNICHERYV

Take `Nc1ncnc2c1ncn2[C@@H]1O[C@H](COP(=O)(O)OP(=O)(O)OP(=O)(O)O)[C@@H](O)[C@H]1O` [ATP, adenosine triphosphate]: the “Ca2+ mobilization, relative fluorescence units (RFUs = max − min)” value at GRPR [1] amounted to 271 ± 24.4 RFUs.

As to `CCNC(=O)[C@H](CC(C)C)NC(=O)[C@H](Cc1c[nH]cn1)NC(=O)CNC(=O)[C@@H](NC(=O)[C@H](C)NC(=O)[C@H](Cc1c[nH]c2ccccc12)NC(=O)[C@H](CCC(N)=O)NC(=O)[C@@H](Cc1ccccc1)NC(=O)COCC(=O)Nc1ccc(CNC(=O)CN2CCN(CC(=O)O)CCN(CC(=O)O)CCN(CC(=O)O)CC2)cc1)C(C)C` [[^68Ga]Ga-SB3, [^68Ga]Ga-DOTA-pABzA-DIG-D-Phe-Gln-Trp-Ala-Val-Gly-His-Leu-NHEt, metal not drawn, reference compound], the tissue uptake at 1 h is 6.98 ± 1.36 %ID/g in data set [2] (PC-3 tumor, read-out: PC-3 tumor uptake); 2.07 ± 0.66 %ID/g in data set [2] (adrenal glands, read-out: Adrenal glands uptake); 0.5 ± 0.09 %ID/g in data set [2] (blood, read-out: Blood uptake); 0.12 ± 0.01 %ID/g in data set [2] (bone, read-out: Bone uptake); 0.04 ± 0.01 %ID/g in data set [2] (brain, read-out: Brain uptake); 0.05 ± 0.01 %ID/g in data set [2] (fat, read-out: Fat uptake). Also, the tissue uptake at 1 h in data set [2] (heart, read-out: Heart uptake) is 0.16 ± 0.02 %ID/g; in data set [2] (kidneys, read-out: Kidneys uptake), 2.26 ± 0.26 %ID/g; in data set [2] (large intestine, read-out: Large intestine uptake), 2.2 ± 0.89 %ID/g; in data set [2] (liver, read-out: Liver uptake), 2.1 ± 0.45 %ID/g; in data set [2] (lungs, read-out: Lungs uptake), 1.18 ± 0.23 %ID/g; in data set [2] (muscle, read-out: Muscle uptake), 0.18 ± 0.1 %ID/g. Further, the tissue uptake at 1 h was determined as 37.3 ± 6.9 %ID/g in data set [2] (pancreas, read-out: Pancreas uptake); 6.03 ± 1.07 %ID/g in data set [2] (small intestine, read-out: Small intestine uptake); 0.33 ± 0.17 %ID/g in data set [2] (spleen, read-out: Spleen uptake); 1.42 ± 0.57 %ID/g in data set [2] (stomach, read-out: Stomach uptake); 0.13 ± 0.01 %ID/g in data set [2] (testes, read-out: Testes uptake). The tissue to tissue ratio at 1 h in data set [2] (tumor and bone, read-out: Tumor/bone uptake ratio) is 61 ± 15.5; in data set [2] (tumor and kidney, read-out: Tumor/kidney uptake ratio), 3.09 ± 0.51; in data set [2] (tumor and muscle, read-out: Tumor/muscle uptake ratio) it was 48.2 ± 24.9; in data set [2] (tumor and pancreas, read-out: Tumor/pancreas uptake ratio), 0.19 ± 0.03; in data set [2] (tumor and whole blood, read-out: Tumor/blood uptake ratio), 14.4 ± 3.88. The same molecule had a logD in “physchem” of -2.47 ± 0.09. The “Excretion pathway in PET images” value in the data set with PC-3 tumor xenografts was “excreted primarily through the renal pathway”. The “Pancreas in PET images” value in the data set on PC-3 tumor xenografts is reported as “high pancreas uptake”.

Consider “D-Phe-Gln-Trp-Ala-Val-Gly-His-Leu-NHOH [C-terminal hydroxamate-derived GRPR-targeted antagonist reported by Devin et al]”, for which, at GRPR [3], the Ki was 5.8 nM.

Consider “Ga-DOTA-Pip-D-Phe-Gln-Trp-Ala-Val-Gly-His-Leu-NHOH [Ga-LW02050]”, for which, at GRPR [4], the Ki is 8.53 ± 1.52 nM. For the same molecule, on GRPR [1], the “Ca2+ mobilization, relative fluorescence units (RFUs = max − min)” value worked out at 25.8 ± 7.95 RFUs. In addition, on GRPR [1] (50 nM, calcium release assay), the Agonist/antagonist characteristics result was “antagonist”.

At GRPR [4], “Ga-DOTA-pABzA-DIG-D-Phe-Gln-Trp-Ala-Val-Gly-His-Leu-NHEt [Ga-SB3, reference compound]” came in with a Ki of 1.2 ± 0.31 nM.

In the case of “[D-Phe^6,Leu-NHEt^13,des-Met^14]Bombesin(6-14)”, at GRPR [1], the “Ca2+ mobilization, relative fluorescence units (RFUs = max − min)” value was 47.2 ± 6.61 RFUs.

Turning to bombesin, the “Ca2+ mobilization, relative fluorescence units (RFUs = max − min)” value at GRPR [1] worked out at 371 ± 65.0 RFUs.
